From patent publication US20090087428A1 (Genentech, published 2009)
Where “and” joins values, the source holds several entries; their conditions need not be identical. Identical values can stand only once.

B1: 5A6/22E7 knob in holes, hingeless bispecific antibody (anti-FcγRIIB/anti-FcεRI) (bispecific antibody)
chain 1: EVKLEESGGGLVQPGGSMKLSCVASGFTFSDAWMDWVRQSPERGLEWVAEIRSKPNNHATYYAESVKGRFTISRDDSKSSVYLQMTSLRPEDTGIYYCTHFDYWGQGTTLTVSSAKTTGPSVFPLAPSSKSTSGGTAALGCLVKDYFPEPVTVSWNSGALTSGVHTFPAVLQSSGLYSLSSVVTVPSSSLGTQTYICNVNHKPSNTKVDKKVEPKSCDKTHTSPPSPAPELLGGPSVFLFPPKPKDTLMISRTPEVTCVVVDVSHEDPEVKFNWYVDGVEVHNAKTKPREEQYNSTYRVVSVLTVLHQDWLNGKEYKCKVSNKALPAPIEKTISKAKGQPREPQVYTLPPSRDELTKNQVSLWCLVKGFYPSDIAVEWESNGQPENNYKTTPPVLDSDGSFFLYSKLTVDKSRWQQGNVFSCSVMHEALHNHYTQKSLSLSPEL
chain 2: DIQMTQSPSSLSASLGERVSLTCRASQEISGYLSWFQQKPDGTIKRLIYAASALDSGVPKRFSGSWSGSDYSLTISSLESEDFADYYCLQYVSYPLTFGAGTKLELKRTVAAPSVFIFPPSDEQLKSGTASVVCLLNNFYPREAKVQWKVDNALQSGNSQESVTEQDSKDSTYSLSSTLTLSKADYEKHKVYACEVTHQGLSSPVTKSFNRGEC
chain 3: EVKLVESGGGLVKPGGSLKLSCAASGFTFSSYGMSWVRQTPEKRLEWVATISGGNNYTFYPDNLKGRFTISRDNAKNILYLQISSLRSVDTALYYCASLWYRASFAYWGQGTLVTVSSAKTTGPSVFPLAPSSKSTSGGTAALGCLVKDYFPEPVTVSWNSGALTSGVHTFPAVLQSSGLYSLSSVVTVPSSSLGTQTYICNVNHKPSNTKVDKKVEPKSCDKTHTSPPSPAPELLGGPSVFLFPPKPKDTLMISRTPEVTCVVVDVSHEDPEVKFNWYVDGVEVHNAKTKPREEQYNSTYRVVSVLTVLHQDWLNGKEYKCKVSNKALPAPIEKTISKAKGQPREPQVYTLPPSRDELTKNQVSLSCAVKGFYPSDIAVEWESNGQPENNYKTTPPVLDSDGSFFLVSKLTVDKSRWQQGNVFSCSVMHEALHNHYTQKSLSLSPEL
chain 4: DIMMTQSPSSMYASLGERVTITCKASQDINSYLSWFQQKPGKSPKTLISRANRLVDGVPSRFSGSGSGQDYSLTISSLEYEDMGIYYCLQYDDFPFTFGGGTKVEIKRTVAAPSVFIFPPSDEQLKSGTASVVCLLNNFYPREAKVQWKVDNALQSGNSQESVTEQDSKDSTYSLSSTLTLSKADYEKHKVYACEVTHQGLSSPVTKSFNRGEC

Tests used:
[1] = target: B1; assay: flow cytometry, RBL huFcεRI+huFcγRIIB1 and +huFcγRIIB2 cells (FIGS. 40, 41)
[2] = target: T1, GST-huFcγRIIB (human FcγRIIB extracellular domain-Gly-His6-GST fusion protein) (human, UniProt P08515 1-218 = GST); assay: sandwich (bridging) ELISA, FIG. 29: plate FcγRIIB-His6-GST, antibody titrated, then huFcεRI-ECD-Fc and IgE-biotin/streptavidin-HRP; signal needs both arms
T1 construct: Expressed in 293 cells; also called FcγRIIB-His6-GST; huFcγRIIB-His6-GST

[3] = target: T2, huFcεRI-ECD-Fc (IgE receptor fusion) (human, UniProt P12319 26-205); assay: sandwich (bridging) ELISA, FIG. 30: plate huFcεRI-ECD-Fc, antibody titrated, then FcγRIIB-His6-GST and anti-GST-biotin/streptavidin-HRP; signal needs both arms
T2 construct: extracellular domain; not shown: Fc part
T2 sequence (looked up): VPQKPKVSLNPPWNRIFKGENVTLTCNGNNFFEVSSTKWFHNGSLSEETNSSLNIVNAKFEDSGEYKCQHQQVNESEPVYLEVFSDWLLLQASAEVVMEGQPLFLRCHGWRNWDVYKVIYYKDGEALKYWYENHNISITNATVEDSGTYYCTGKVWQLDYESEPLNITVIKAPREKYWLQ
Description: ELISA plates were coated overnight at 4° C. with 100 μl of a 1 μg/ml solution of huFcεRI-ECD-Fc in PBS, pH 7.4. The plate was washed with PBS and blocked with 1% Casein blocker in PBS. The wells were washed three times with PBS/0.05% TWEEN®. Serial dilutions of 5A6/22E7 bispecific antibodies, 5A6 antibodies, or 22E7 antibody were prepared in ELISA Diluent buffer and added to wells at 100 μl/well of each dilution. The plates were incubated for 1 hour at room temperature. After washing the plate three times with PBS/0.05% TWEEN®, FcγRIIB-His₆-GST was added to each well at 100 μl of 1 μg/ml in the presence of 10 μg/ml of CD4-IgG to block FcγRIIB-His₆-GST binding to Fc portion of the test antibody, huFcεRI-ECD-Fc and secondary antibody (anti-GST-biotin) and incubated for 1 hour at room temperature. After washing the plate three times with PBS/0.05% TWEEN®, 100 μl of 1 μg/ml anti-GST-biotin was added to each well and incubated for 1 hour at room temperature. The plate was washed with PBS/0.05% TWEEN® and incubated 30 minutes with 100 μl/well of 1:2000 Streptavidin-HRP in Elisa diluent buffer. After washing with PBS/0.05% TWEEN®, the plate was incubated 5 minutes with 100 μl TMB substrate. The reaction was quenched with 100 μl/well stop solution and the plate read at 630 nm. […]

[4] = target: T1, GST-huFcγRIIB (human FcγRIIB …); assay: ELISA, plate-coated GST fusion (FIG. 6)
[5] = target: T3, native human FcγRIIA (CD32A) on K562 erythroleukemia cells (human, UniProt P12318 34-317); assay: indirect immunofluorescence, flow cytometry on K562 cells (FIG. 16)
T3 construct: also called huFcγRIIA (CD32A); native FcγRIIA
T3 sequence: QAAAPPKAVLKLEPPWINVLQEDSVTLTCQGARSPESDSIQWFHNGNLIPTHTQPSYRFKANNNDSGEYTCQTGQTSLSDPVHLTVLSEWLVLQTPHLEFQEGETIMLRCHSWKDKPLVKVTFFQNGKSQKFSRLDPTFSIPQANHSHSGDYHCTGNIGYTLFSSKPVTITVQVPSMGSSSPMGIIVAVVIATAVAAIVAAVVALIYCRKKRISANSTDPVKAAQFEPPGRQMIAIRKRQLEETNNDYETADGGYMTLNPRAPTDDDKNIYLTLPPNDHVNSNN
From the text: Indirect immunofluorescence binding analysis of 5A6 MAb to native FcγRIIA expressed on K562 erythroleukemia cells (ATCC No. CCL-243) is presented in FIG. 16. Separated aliquots of K562 cells were stained with either a mIgG1 isotype control (mopc 21), 5A6 (anti-human FcγRIIB) monoclonal antibody or Medarex 4.3 MAb (anti-human FcγRIIA/B) monoclonal antibody.

[6] = target: T2, huFcεRI-ECD-Fc (IgE receptor fusion); assay: sandwich (bridging) ELISA, FIG. 30: plate huFcεRI-ECD-Fc, antibody titrated, then FcγRIIB-His6-GST and anti-GST-biotin/streptavidin-HRP; signal needs both arms, so the value does not measure 22E7 on FcεRI alone

Binder | ECD to bispecific ratio at which binding to cells is decreased (complete blocking only with both ECDs) [1] | IC50 [2] | IC50 [3] | also measured
huFcγRIIB extracellular domain with C-terminal His6 tag (huFcγRIIB ECD) (receptor, Whole entry named; only the extracellular domain is in the construct; Baculovirus expression) TPAAPPKAVLKLEPQWINVLQEDSVTLTCRGTHSPESDSIQWFHNGNLIPTHTQPSYRFKANNNDSGEYTCQTGQTSLSDPVHLTVLSEWLVLQTPHLEFQEGETIVLRCHSWKDKPLVKVTFFQNGKSKKFSRSDPNFSIPQANHSHSGDYHCTGNIGYTLYSSKPVTITVQAPHHHHHH | 10 ratio ECD:bispecific |  |  | 
huFcεRIα extracellular domain (huFcεRIα ECD) (receptor, human, UniProt P12319 26-205, looked up, extracellular domain; also called huFcεRI ECD) VPQKPKVSLNPPWNRIFKGENVTLTCNGNNFFEVSSTKWFHNGSLSEETNSSLNIVNAKFEDSGEYKCQHQQVNESEPVYLEVFSDWLLLQASAEVVMEGQPLFLRCHGWRNWDVYKVIYYKDGEALKYWYENHNISITNATVEDSGTYYCTGKVWQLDYESEPLNITVIKAPREKYWLQ | 10 ratio ECD:bispecific |  |  | 
5A6/22E7 knob in holes, wild type hinge, bispecific antibody (bispecific antibody) chain 1: EVKLEESGGGLVQPGGSMKLSCVASGFTFSDAWMDWVRQSPERGLEWVAEIRSKPNNHATYYAESVKGRFTISRDDSKSSVYLQMTSLRPEDTGIYYCTHFDYWGQGTTLTVSSAKTTGPSVFPLAPSSKSTSGGTAALGCLVKDYFPEPVTVSWNSGALTSGVHTFPAVLQSSGLYSLSSVVTVPSSSLGTQTYICNVNHKPSNTKVDKKVEPKSCDKTHTCPPCPAPELLGGPSVFLFPPKPKDTLMISRTPEVTCVVVDVSHEDPEVKFNWYVDGVEVHNAKTKPREEQYNSTYRVVSVLTVLHQDWLNGKEYKCKVSNKALPAPIEKTISKAKGQPREPQVYTLPPSRDELTKNQVSLWCLVKGFYPSDIAVEWESNGQPENNYKTTPPVLDSDGSFFLYSKLTVDKSRWQQGNVFSCSVMHEALHNHYTQKSLSLSPEL chain 2: DIQMTQSPSSLSASLGERVSLTCRASQEISGYLSWFQQKPDGTIKRLIYAASALDSGVPKRFSGSWSGSDYSLTISSLESEDFADYYCLQYVSYPLTFGAGTKLELKRTVAAPSVFIFPPSDEQLKSGTASVVCLLNNFYPREAKVQWKVDNALQSGNSQESVTEQDSKDSTYSLSSTLTLSKADYEKHKVYACEVTHQGLSSPVTKSFNRGEC chain 3: not shown chain 4: DIMMTQSPSSMYASLGERVTITCKASQDINSYLSWFQQKPGKSPKTLISRANRLVDGVPSRFSGSGSGQDYSLTISSLEYEDMGIYYCLQYDDFPFTFGGGTKVEIKRTVAAPSVFIFPPSDEQLKSGTASVVCLLNNFYPREAKVQWKVDNALQSGNSQESVTEQDSKDSTYSLSSTLTLSKADYEKHKVYACEVTHQGLSSPVTKSFNRGEC |  | 0.0552 µg/mL and 0.076 µg/mL | 0.49 µg/mL and 0.291 µg/mL | 
Antibody 5A6.2.1 (anti-human FcγRIIB monoclonal antibody) (antibody, 5A6(A) and 5A6(B) are two protein preps of 5A6; also called 5A6 MAb; 5A6 mIgG1) VH: EVKLEESGGGLVQPGGSMKLSCVASGFTFSDAWMDWVRQSPERGLEWVAEIRSKPNNHATYYAESVKGRFTISRDDSKSSVYLQMTSLRPEDTGIYYCTHFDYWGQGTTLTVSSAKTTGPSVFPLAPSSKSTSGGTAALGCLVKDYFPEPVTVSWNSGALTSGVHTFPAVLQSSGLYSLSSVVTVPSSSLGTQTYICNVNHKPSNTKVDKKVEPKSCDKTHT VL: DIQMTQSPSSLSASLGERVSLTCRASQEISGYLSWFQQKPDGTIKRLIYAASALDSGVPKRFSGSWSGSDYSLTISSLESEDFADYYCLQYVSYPLTFGAGTKLELKRTVAAPSVFIFPPSDEQLKSGTASVVCLLNNFYPREAKVQWKVDNALQSGNSQESVTEQDSKDSTYSLSSTLTLSKADYEKHKVYACEVTHQGLSSPVTKSFNRGEC |  |  |  | EC50 [4]: 0.06 nM; binding result [5]: no binding
B1 |  | 0.023 µg/mL | 0.0765 µg/mL | 
22E7 MAb (anti-human FcεRI monoclonal antibody) (antibody) chain 1: EVKLVESGGGLVKPGGSLKLSCAASGFTFSSYGMSWVRQTPEKRLEWVATISGGNNYTFYPDNLKGRFTISRDNAKNILYLQISSLRSVDTALYYCASLWYRASFAYWGQGTLVTVSS chain 2: DIMMTQSPSSMYASLGERVTITCKASQDINSYLSWFQQKPGKSPKTLISRANRLVDGVPSRFSGSGSGQDYSLTISSLEYEDMGIYYCLQYDDFPFTFGGGTKVEIK |  | 100 µg/mL |  | IC50 [6]: 2800 µg/mL
